# B1: clone 66 (VHH)
# VHH: EVQLQASGGGFVQPGGSLRLSCAASGTGSNASAMGWFRQAPGKEREFVSAISRHEGQPPYYADSVKGRFTISRDNSKNTVYLQMNSLRAEDTATYYCAMRYQSHIDIPGDSSPKLMYWGQGTQVTVSS
# B2: clone 57 (VHH)
# VHH: EVQLQASGGGFVQPGGSLRLSCAASGGTSFQTAMGWFRQAPGKEREFVSAISSRQGSHPYYADSVKGRFTISRDNSKNTVYLQMNSLRAEDTATYYCATRMTETRKMYWGQGTQVTVSS
# B3: clone 44 (VHH)
# VHH: EVQLQASGGGFVQPGGSLRLSCAASGFTSGSTAMGWFRQAPGKEREFVSAISRFENQGNYYADSVKGRFTISRDNSKNTVYLQMNSLRAEDTATYYCATRAVASSTMYWGQGTQVTVSS
# B4: clone 28 (VHH)
# VHH: EVQLQASGGGFVQPGGSLRLSCAASGASYRGTSMGWFRQAPGKEREFVSAISFRPDQQPYYADSVKGRFTISRDNSKNTVYLQMNSLRAEDTATYYCAERRQHSRGLYWGQGTQVTVSS
# B5: clone 60 (VHH)
# VHH: EVQLQASGGGFVQPGGSLRLSCAASGSTFKHSAMGWFRQAPGKEREFVSAISSGPGMESYYADSVKGRFTISRDNSKNTVYLQMNSLRAEDTATYYCAGRAFPGQKMYWGQGTQVTVSS
# B6: clone 41 (VHH)
# VHH: EVQLQASGGGFVQPGGSLRLSCAASGDTWRTTAMGWFRQAPGKEREFVSAISGGDNRGTYYADSVKGRFTISRDNSKNTVYLQMNSLRAEDTATYYCAGRLNQNGPMYWGQGTQVTVSS
# B7: clone 40 (VHH)
# VHH: EVQLQASGGGFVQPGGSLRLSCAASGRTFDGSAMGWFRQAPGKEREFVSAISASPSGESYYADSVKGRFTISRDNSKNTVYLQMNSLRAEDTATYYCAGRGRSQKSMYWGQGTQVTVSS
# B8: clone 49 (VHH)
# VHH: EVQLQASGGGFVQPGGSLRLSCAASGGFFTSSTMGWFRQAPGKEREFVSAISRQHDNAPYYADSVKGRFTISRDNSKNMVYLQMNSLRAEDTATYYCAARNATHKGIYWGQGTQVTVSS
# B9: clone 42 (VHH)
# VHH: EVQLQASGGGFVQPGGSLRLSCAASGDGSFASAMGWFRQAPGKEREFVSAISAHAGGSPYYADSVKGRFTISRDNSKNTVYLQMNSLRAEDTATYYCAQRIGATRAMYWGQGTQVTVSS
# B10: clone 26 (VHH)
# VHH: EVQLQASGGGFVQPGGSLRLSCAASGAYSARTTMGWFRQAPGKEREFVSAISAHEGQAPYYADSVKGRFTISRDNSKNTVYLQMNSLRAEDTATYYCATRAHEPKGMYWGQGTQVTVSS
# B11: clone 4 (VHH)
# VHH: EVQLQASGGGFVQPGGSLRLSCAASGRTFRIDTMGWFRQAPGKEREFVSAISFDTSHENYYADSVKGRFTISRDNSKNTVYLQMNSLRAEDTATYYCAPESMWFSIEYWGQGTQVTVSS
# B12: clone 8 (VHH)
# VHH: EVQLQASGGGFVQPGGSLRLSCAASGSTSSHYDMGWFRQAPGKEREFVSAISYNHDHDTYYADSVKGRFTISRDNSKNTVYLQMNSLRAEDTATYYCAGATATTDGGYQEYWGQGTQVTVSS
# B13: clone 2 (VHH)
# VHH: EVQLQASGGGFVQPGGSLRLSCAASGFFSNIEDMGWFRQAPGKEREFVSAISGYENESPYYADSVKGRFTISRDNSKNTVYLQMNSLRAEDTATYYCAAQSYHGKKGMTEYWGQGTQVTVSS
# B14: clone 7 (VHH)
# VHH: EVQLQASGGGFVQPGGSLRLSCAASGTSYANSDMGWFRQAPGKEREFVSAISGGDSAYYYYADSVKGRFTISRDNSKNTVYLQMNSLRAEDTATYYCATQQIGMREYYWGQGTQVTVSS
# B15: clone 6 (VHH)
# VHH: EVQLQASGGGFVQPGGSLRLSCAASGTTYSSDTMGWFRQAPGKEREFVSAISGRQNWDRYYADSVKGRFTISRDNSKNTVYLQMNSLRAEDTATYYCAYWGHGTYEFDPKSMYWGQGTQVTVSS
# B16: clone 3 (VHH)
# VHH: EVQLQASGGGFVQPGGSLRLSCAASGSTSYSYNMGWFRQAPGKEREFVSAISRDGDWKNYYADSVKGRFTISRDNSKNTVYLQMNSLRAEDTATYYCAFEEHWMTPLYWGQGTQVTVSS
# B17: clone 5 (VHH)
# VHH: EVQLQASGGGFVQPGGSLRLSCAASGTTSFRDTMGWFRQAPGKEREFVSAISWNEGHAHYYADSVKGRFTISRDNSKNTVYLQMNSLRAEDTATYYCASEDMWFNHFYWGQGTQVTVSS
# B18: clone 1 (VHH)
# VHH: EVQLQASGGGFVQPGGSLRLSCAASGDTYRWDNMGWFRQAPGKEREFVSAISGLGNMDSYYADSVKGRFTISRDNSKNTVYLQMNSLRAEDTATYYCAQEEKWMSPQYWGQGTQVTVSS
# B19: clone 9 (VHH)
# VHH: EVQLQASGGGFVQPGGSLRLSCAASGSYSAETDMGWFRQAPGKEREFVSAISGDPTTTTYYADSVKGRFTISRDNSKNTVYLQMNSLRAEDTATYYCAYQRLDNFEIYWGQGTQVTVSS
# B20: clone 10 (VHH)
# VHH: EVQLQASGGGFVQPGGSLRLSCAASGRTSWSEIMGWFRQAPGKEREFVSAISRYTDDYSYYADSVKGRFTISRDNSKNTVYLQMNSLRAEDTATYYCATYHYQYGGDQTFYWGQGTQVTVSS
# Target: T1, EF-Biotin (B. anthracis, UniProt P40136 34-800)
# T1 sequence: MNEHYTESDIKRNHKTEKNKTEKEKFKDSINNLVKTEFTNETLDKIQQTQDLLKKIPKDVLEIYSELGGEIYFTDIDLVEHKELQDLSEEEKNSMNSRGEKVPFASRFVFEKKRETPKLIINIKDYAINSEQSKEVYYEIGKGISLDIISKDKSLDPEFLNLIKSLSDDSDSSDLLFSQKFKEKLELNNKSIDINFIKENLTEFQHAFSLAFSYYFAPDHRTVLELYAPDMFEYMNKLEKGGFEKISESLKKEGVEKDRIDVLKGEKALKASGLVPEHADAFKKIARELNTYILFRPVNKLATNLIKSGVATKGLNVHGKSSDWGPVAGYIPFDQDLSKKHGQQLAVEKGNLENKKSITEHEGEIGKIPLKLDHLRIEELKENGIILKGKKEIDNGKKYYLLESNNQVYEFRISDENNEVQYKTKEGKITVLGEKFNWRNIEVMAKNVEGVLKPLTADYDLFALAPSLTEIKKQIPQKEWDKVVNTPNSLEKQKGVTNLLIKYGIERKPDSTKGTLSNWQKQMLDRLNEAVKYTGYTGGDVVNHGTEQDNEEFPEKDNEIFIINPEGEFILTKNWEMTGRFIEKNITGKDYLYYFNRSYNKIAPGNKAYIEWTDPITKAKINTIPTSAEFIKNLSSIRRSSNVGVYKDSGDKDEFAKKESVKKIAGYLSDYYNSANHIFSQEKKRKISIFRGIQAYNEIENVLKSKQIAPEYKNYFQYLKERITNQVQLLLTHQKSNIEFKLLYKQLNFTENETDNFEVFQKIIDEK
# Test: not given
row,Binder,Phage ELISA Ag+/Ag- [ratio]
1,B1,51.8
2,B2,40.1
3,B3,52.7
4,B4,44.5
5,B5,43.6
6,B6,36.7
7,B7,31.5
8,B8,36.7
9,B9,36.2
10,B10,51.3

# Target: T2, LF-Biotin (B. anthracis, UniProt P15917 34-809)
# T2 sequence: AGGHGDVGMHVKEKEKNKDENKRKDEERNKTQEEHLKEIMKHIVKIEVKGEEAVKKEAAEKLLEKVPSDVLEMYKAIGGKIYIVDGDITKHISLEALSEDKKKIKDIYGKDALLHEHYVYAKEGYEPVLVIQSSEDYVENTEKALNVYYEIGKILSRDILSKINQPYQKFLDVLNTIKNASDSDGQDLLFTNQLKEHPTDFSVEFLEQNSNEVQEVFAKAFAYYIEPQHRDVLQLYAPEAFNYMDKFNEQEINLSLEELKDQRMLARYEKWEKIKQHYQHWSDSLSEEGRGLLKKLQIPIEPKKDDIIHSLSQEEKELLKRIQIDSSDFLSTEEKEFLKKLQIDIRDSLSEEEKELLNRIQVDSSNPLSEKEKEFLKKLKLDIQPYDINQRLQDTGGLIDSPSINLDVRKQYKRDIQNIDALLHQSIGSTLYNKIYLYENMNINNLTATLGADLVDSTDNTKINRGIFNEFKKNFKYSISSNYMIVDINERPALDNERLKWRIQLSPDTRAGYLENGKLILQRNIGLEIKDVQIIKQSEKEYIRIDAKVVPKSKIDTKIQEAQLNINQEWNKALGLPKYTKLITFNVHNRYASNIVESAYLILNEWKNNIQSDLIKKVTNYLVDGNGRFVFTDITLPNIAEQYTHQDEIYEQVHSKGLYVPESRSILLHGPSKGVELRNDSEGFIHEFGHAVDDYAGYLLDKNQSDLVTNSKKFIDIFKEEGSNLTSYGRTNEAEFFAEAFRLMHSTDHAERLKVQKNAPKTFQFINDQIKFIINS
# Test: non-adsorbed phage ELISA, VHH on M13 phage, LF-Biotin vs His-SNAP-Halo-Biotin
row,Binder,Phage ELISA ratio signal LF/signal His-SNAP-Halo [ratio]
1,B11,34.6
2,B12,30.2
3,B13,36.5
4,B14,17
5,B15,8.9
6,B16,47.2
7,B17,41.5
8,B18,45.5
9,B19,38.1
10,B20,7.7

# Target: T1, EF-Biotin
# Test: non-adsorbed VHH ELISA, IPTG-induced VHH-myc, EF-Biotin (Ag+) vs control (Ag-)
row,Binder,Phage IPTG Ag+/Ag- [ratio]
1,B1,5.8
2,B2,6.3
3,B3,6.1
4,B4,6.6
5,B5,4.9
6,B6,5.7
7,B7,6.2
8,B8,3.6
9,B9,5
10,B10,10.2

# Target: T2, LF-Biotin
# Test: non-adsorbed VHH ELISA, IPTG-induced VHH-myc, LF-Biotin vs His-SNAP-Halo-Biotin
row,Binder,Induced ELISA ratio Signal LF/signal His-SNAP-Halo [ratio]
1,B11,9.2
2,B12,5.5
3,B13,5
4,B14,6.8
5,B15,7.3
6,B16,6.3
7,B17,8
8,B18,6.3
9,B19,4.6
10,B20,3.9

# Reference: patent US20200199206A1 (AC THERA, published 2020)
